Assay results: paper PMC11574045, “A cofactor-induced repressive type of transcription factor condensation can be induced by synthetic peptides to suppress tumorigenesis” (The EMBO Journal, 2024)

System: HEK293FT cells transfected with TF library
Test: Screening of TF condensates based on fluorescent puncta
Assay type: cell-based
Conditions: Figure 1B numerical data; TF library screen, one value per transcriptional factor
Summary of the method: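 Each TF construct was introduced into HEK293FT cells using PEI at 4.8 μg/ml; glucose deprivation versus normal medium lasted 12 h. Automated confocal-style imaging of tagged TF staining, 50 fields per well, gave the puncta data.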

Molecule	Z score of condensed fraction
ZFP296 (protein, UniProt Q8WUU4 1-475, looked up) Zinc finger protein 296: MSRRKAGSAPRRVEPAPAANPDDEMEMQDLVIELKPEPDAQPQQAPRLGPFSPKEVSSAGRFGGEPHHSPGPMPAGAALLALGPRNPWTLWTPLTPNYPDRQPWTDKHPDLLTCGRCLQTFPLEAITAFMDHKKLGCQLFRGPSRGQGSEREELKALSCLRCGKQFTVAWKLLRHAQWDHGLSIYQTESEAPEAPLLGLAEVAAAVSAVVGPAAEAKSPRASGSGLTRRSPTCPVCKKTLSSFSNLKVHMRSHTGERPYACDQCPYACAQSSKLNRHKKTHRQVPPQSPLMADTSQEQASAAPPEPAVHAAAPTSTLPCSGGEGAGAAATAGVQEPGAPGSGAQAGPGGDTWGAITTEQRTDPANSQKASPKKMPKSGGKSRGPGGSCEFCGKHFTNSSNLTVHRRSHTGERPYTCEFCNYACAQSSKLNRHRRMHGMTPGSTRFECPHCHVPFGLRATLDKHLRQKHPEAAGEA	0.8818
ZFAT (protein, UniProt Q9P243 1-1243, looked up) Zinc finger protein ZFAT: METRAAENTAIFMCKCCNLFSPNQSELLSHVSEKHMEEGVNVDEIIIPLRPLSTPEPPNSSKTGDEFLVMKRKRGRPKGSTKKSSTEEELAENIVSPTEDSPLAPEEGNSLPPSSLECSKCCRKFSNTRQLRKHICIIVLNLGEEEGEAGNESDLELEKKCKEDDREKASKRPRSQKTEKVQKISGKEARQLSGAKKPIISVVLTAHEAIPGATKIVPVEAGPPETGATNSETTSADLVPRRGYQEYAIQQTPYEQPMKSSRLGPTQLKIFTCEYCNKVFKFKHSLQAHLRIHTNEKPYKCPQCSYASAIKANLNVHLRKHTGEKFACDYCSFTCLSKGHLKVHIERVHKKIKQHCRFCKKKYSDVKNLIKHIRDAHDPQDKKVKEALDELCLMTREGKRQLLYDCHICERKFKNELDRDRHMLVHGDKWPFACELCGHGATKYQALELHVRKHPFVYVCAVCRKKFVSSIRLRTHIKEVHGAAQEALVFTSSINQSFCLLEPGGDIQQEALGDQLQLVEEEFALQGVNALKEEACPGDTQLEEGRKEPEAPGEMPAPAVHLASPQAESTALPPCELETTVVSSSDLHSQEVVSDDFLLKNDTSSAEAHAAPEKPPDMQHRSSVQTQGEVITLLLSKAQSAGSDQESHGAQSPLGEGQNMAVLSAGDPDPSRCLRSNPAEASDLLPPVAGGGDTITHQPDSCKAAPEHRSGITAFMKVLNSLQKKQMNTSLCERIRKVYGDLECEYCGKLFWYQVHFDMHVRTHTREHLYYCSQCHYSSITKNCLKRHVIQKHSNILLKCPTDGCDYSTPDKYKLQAHLKVHTALDKRSYSCPVCEKSFSEDRLIKSHIKTNHPEVSMSTISEVLGRRVQLKGLIGKRAMKCPYCDFYFMKNGSDLQRHIWAHEGVKPFKCSLCEYATRSKSNLKAHMNRHSTEKTHLCDMCGKKFKSKGTLKSHKLLHTADGKQFKCTVCDYTAAQKPQLLRHMEQHVSFKPFRCAHCHYSCNISGSLKRHYNRKHPNEEYANVGTGELAAEVLIQQGGLKCPVCSFVYGTKWEFNRHLKNKHGLKVVEIDGDPKWETATEAPEEPSTQYLHITEAEEDVQGTQAAVAALQDLRYTSESGDRLDPTAVNILQQIIELGAETHDATALASVVAMAPGTVTVVKQVTEEEPSSNHTVMIQETVQQASVELAEQHHLVVSSDDVEGIETVTVYTQGGEASEFIVYVQEAMQPVEEQAVEQPAQEL	-0.7456
ZFP67 (protein, UniProt O15156 1-539, looked up) Zinc finger and BTB …: MGSPEDDLIGIPFPDHSSELLSCLNEQRQLGHLCDLTIRTQGLEYRTHRAVLAACSHYFKKLFTEGGGGAVMGAGGSGTATGGAGAGVCELDFVGPEALGALLEFAYTATLTTSSANMPAVLQAARLLEIPCVIAACMEILQGSGLEAPSPDEDDCERARQYLEAFATATASGVPNGEDSPPQVPLPPPPPPPPRPVARRSRKPRKAFLQTKGARANHLVPEVPTVPAHPLTYEEEEVAGRVGSSGGSGPGDSYSPPTGTASPPEGPQSYEPYEGEEEEEELVYPPAYGLAQGGGPPLSPEELGSDEDAIDPDLMAYLSSLHQDNLAPGLDSQDKLVRKRRSQMPQECPVCHKIIHGAGKLPRHMRTHTGEKPFACEVCGVRFTRNDKLKIHMRKHTGERPYSCPHCPARFLHSYDLKNHMHLHTGDRPYECHLCHKAFAKEDHLQRHLKGQNCLEVRTRRRRKDDAPPHYPPPSTAAASPAGLDLSNGHLDTFRLSLARFWEQSAPTGPPVSTPGPPDDDEEEGAPTTPQAEGAMESS	0.1735
ZFP36L1 (protein, UniProt P23950 1-338, looked up) mRNA decay activator protein …: MTTTLVSATIFDLSEVLCKGNKMLNYSTPSAGGCLLDRKAVGTPAGGGFPRRHSVTLPSSKFHQNQLLSSLKGEPAPSLSSRDSRFRDRSFSEGGERLLPTQKQPGSGQVNSSRYKTELCRPFEENGACKYGDKCQFAHGIHELRSLTRHPKYKTELCRTFHTIGFCPYGPRCHFIHNAEERRALAGGRDLSADRPRLQHSFSFAGFPSAAATAAATGLLDSPTSITPPPILSADDLLGSPTLPDGTNNPFAFSSQELASLFAPSMGLPGGGSPTTFLFRPMSESPHMFDSPPSPQDSLSDHEGYLSSSSSSHSGSDSPTLDNSRRLPIFSRLSISDD	0.2477
ZEB2 (protein, UniProt O60315 1-1214, looked up) Zinc finger E-box-binding …: MKQPIMADGPRCKRRKQANPRRKNVVNYDNVVDTGSETDEEDKLHIAEDDGIANPLDQETSPASVPNHESSPHVSQALLPREEEEDEIREGGVEHPWHNNEILQASVDGPEEMKEDYDTMGPEATIQTAINNGTVKNANCTSDFEEYFAKRKLEERDGHAVSIEEYLQRSDTAIIYPEAPEELSRLGTPEANGQEENDLPPGTPDAFAQLLTCPYCDRGYKRLTSLKEHIKYRHEKNEENFSCPLCSYTFAYRTQLERHMVTHKPGTDQHQMLTQGAGNRKFKCTECGKAFKYKHHLKEHLRIHSGEKPYECPNCKKRFSHSGSYSSHISSKKCIGLISVNGRMRNNIKTGSSPNSVSSSPTNSAITQLRNKLENGKPLSMSEQTGLLKIKTEPLDFNDYKVLMATHGFSGTSPFMNGGLGATSPLGVHPSAQSPMQHLGVGMEAPLLGFPTMNSNLSEVQKVLQIVDNTVSRQKMDCKAEEISKLKGYHMKDPCSQPEEQGVTSPNIPPVGLPVVSHNGATKSIIDYTLEKVNEAKACLQSLTTDSRRQISNIKKEKLRTLIDLVTDDKMIENHNISTPFSCQFCKESFPGPIPLHQHERYLCKMNEEIKAVLQPHENIVPNKAGVFVDNKALLLSSVLSEKGMTSPINPYKDHMSVLKAYYAMNMEPNSDELLKISIAVGLPQEFVKEWFEQRKVYQYSNSRSPSLERSSKPLAPNSNPPTKDSLLPRSPVKPMDSITSPSIAELHNSVTNCDPPLRLTKPSHFTNIKPVEKLDHSRSNTPSPLNLSSTSSKNSHSSSYTPNSFSSEELQAEPLDLSLPKQMKEPKSIIATKNKTKASSISLDHNSVSSSSENSDEPLNLTFIKKEFSNSNNLDNKSTNPVFSMNPFSAKPLYTALPPQSAFPPATFMPPVQTSIPGLRPYPGLDQMSFLPHMAYTYPTGAATFADMQQRRKYQRKQGFQGELLDGAQDYMSGLDDMTDSDSCLSRKKIKKTESGMYACDLCDKTFQKSSSLLRHKYEHTGKRPHQCQICKKAFKHKHHLIEHSRLHSGEKPYQCDKCGKRFSHSGSYSQHMNHRYSYCKREAEEREAAEREAREKGHLEPTELLMNRAYLQSITPQGYSDSEERESMPRDGESEKEHEKEGEDGYGKLGRQDGDEEFEEEEEESENKSMDTDPETIRDEEETGDHSMDDSSEDGKMETKSDHEEDNMEDGM	-0.2398
ZFP144 (protein, UniProt P35227 1-344, looked up) Polycomb group RING finger …: MHRTTRIKITELNPHLMCALCGGYFIDATTIVECLHSFCKTCIVRYLETNKYCPMCDVQVHKTRPLLSIRSDKTLQDIVYKLVPGLFKDEMKRRRDFYAAYPLTEVPNGSNEDRGEVLEQEKGALSDDEIVSLSIEFYEGARDRDEKKGPLENGDGDKEKTGVRFLRCPAAMTVMHLAKFLRNKMDVPSKYKVEVLYEDEPLKEYYTLMDIAYIYPWRRNGPLPLKYRVQPACKRLTLATVPTPSEGTNTSGASECESVSDKAPSPATLPATSSSLPSPATPSHGSPSSHGPPATHPTSPTPPSTASGATTAANGGSLNCLQTPSSTSRGRKMTVNGAPVPPLT	0.0768
CALCOCO1 (protein, UniProt Q9P1Z2 1-691, looked up) Calcium-binding and …: MEESPLSRAPSRGGVNFLNVARTYIPNTKVECHYTLPPGTMPSASDWIGIFKVEAACVRDYHTFVWSSVPESTTDGSPIHTSVQFQASYLPKPGAQLYQFRYVNRQGQVCGQSPPFQFREPRPMDELVTLEEADGGSDILLVVPKATVLQNQLDESQQERNDLMQLKLQLEGQVTELRSRVQELERALATARQEHTELMEQYKGISRSHGEITEERDILSRQQGDHVARILELEDDIQTISEKVLTKEVELDRLRDTVKALTREQEKLLGQLKEVQADKEQSEAELQVAQQENHHLNLDLKEAKSWQEEQSAQAQRLKDKVAQMKDTLGQAQQRVAELEPLKEQLRGAQELAASSQQKATLLGEELASAAAARDRTIAELHRSRLEVAEVNGRLAELGLHLKEEKCQWSKERAGLLQSVEAEKDKILKLSAEILRLEKAVQEERTQNQVFKTELAREKDSSLVQLSESKRELTELRSALRVLQKEKEQLQEEKQELLEYMRKLEARLEKVADEKWNEDATTEDEEAAVGLSCPAALTDSEDESPEDMRLPPYGLCERGDPGSSPAGPREASPLVVISQPAPISPHLSGPAEDSSSDSEAEDEKSVLMAAVQSGGEEANLLLPELGSAFYDMASGFTVGTLSETSTGGPATPTWKECPICKERFPAESDKDALEDHMDGHFFFSTQDPFTFE	0.2225
CALR (protein, UniProt P27797 18-417, looked up) Calreticulin: EPAVYFKEQFLDGDGWTSRWIESKHKSDFGKFVLSSGKFYGDEEKDKGLQTSQDARFYALSASFEPFSNKGQTLVVQFTVKHEQNIDCGGGYVKLFPNSLDQTDMHGDSEYNIMFGPDICGPGTKKVHVIFNYKGKNVLINKDIRCKDDEFTHLYTLIVRPDNTYEVKIDNSQVESGSLEDDWDFLPPKKIKDPDASKPEDWDERAKIDDPTDSKPEDWDKPEHIPDPDAKKPEDWDEEMDGEWEPPVIQNPEYKGEWKPRQIDNPDYKGTWIHPEIDNPEYSPDPSIYAYDNFGVLGLDLWQVKSGTIFDNFLITNDEAYAEEFGNETWGVTKAAEKQMKDKQDEEQRLKEEEEDKKRKEEEEAEDKEDDEDKDEDEEDEEDKEEDEEEDVPGQAKDEL	1.22
